Legend:
[1] = biological target: human Neurokinin NK2 receptor (human) (UniProt P21452); assay: radio-ligand competition binding (CEREP), second screen, reference compound; radioligand not named
[2] = biological target: human Neurokinin NK2 receptor (human) (UniProt P21452); assay: radio-ligand competition binding (CEREP), reference compound, human receptor in recombinant mammalian cells; radioligand not named

Sequence of human Neurokinin NK2 receptor (human) (P21452 whole entry): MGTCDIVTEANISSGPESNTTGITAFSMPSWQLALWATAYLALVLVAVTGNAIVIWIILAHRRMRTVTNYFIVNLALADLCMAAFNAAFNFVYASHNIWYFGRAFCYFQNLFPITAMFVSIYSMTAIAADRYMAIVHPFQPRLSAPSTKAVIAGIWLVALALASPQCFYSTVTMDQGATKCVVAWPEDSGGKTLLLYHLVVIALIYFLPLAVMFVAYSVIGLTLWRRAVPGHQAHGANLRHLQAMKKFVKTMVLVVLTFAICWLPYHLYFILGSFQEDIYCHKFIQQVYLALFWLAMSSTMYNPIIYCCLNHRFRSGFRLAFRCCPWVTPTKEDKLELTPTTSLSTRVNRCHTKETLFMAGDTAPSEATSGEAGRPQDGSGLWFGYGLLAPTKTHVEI

- IC50 [1]: 9.7 nM
- IC50 [2]: 9.3 nM
Substance: [Nle10]-NKA(4-10) (from UniProt P20366 101-107) (peptide)

Reference: US20100074852A1
